Experimental findings from patent US20260116921A1, “PEPTIDE INHIBITORS OF INTERLEUKIN-23 RECEPTOR AND THEIR USE TO TREAT INFLAMMATORY DISEASES” (priority 2018, published 2026) are described below.

Sequences and labels used below:
T1: IL-23R (human, UniProt Q5VWK5 24-629)
T1 sequence (looked up): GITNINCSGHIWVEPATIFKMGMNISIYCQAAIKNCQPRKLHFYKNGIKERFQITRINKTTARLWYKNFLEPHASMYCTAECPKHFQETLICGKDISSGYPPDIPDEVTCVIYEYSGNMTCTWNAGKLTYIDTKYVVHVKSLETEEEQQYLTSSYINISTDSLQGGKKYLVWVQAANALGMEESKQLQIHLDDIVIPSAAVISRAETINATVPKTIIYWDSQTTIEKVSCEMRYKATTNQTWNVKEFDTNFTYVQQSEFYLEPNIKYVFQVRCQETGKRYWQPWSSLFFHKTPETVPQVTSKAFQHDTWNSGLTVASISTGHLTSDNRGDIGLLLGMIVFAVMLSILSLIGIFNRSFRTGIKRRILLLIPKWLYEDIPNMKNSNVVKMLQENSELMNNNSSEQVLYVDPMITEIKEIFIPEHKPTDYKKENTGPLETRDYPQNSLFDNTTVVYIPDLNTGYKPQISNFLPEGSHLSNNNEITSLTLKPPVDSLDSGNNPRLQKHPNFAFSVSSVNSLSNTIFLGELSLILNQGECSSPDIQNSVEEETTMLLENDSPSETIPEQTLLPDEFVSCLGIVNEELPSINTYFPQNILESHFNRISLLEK

B1: SEQ ID NO: 272 (peptide)
peptide: XNTXKXXXXKHX
modifications: Ac-[Pen]-N-T-[W(7-Me)]-[Lys(Ac)]-[Pen]-Phe[4-(2-aminoethoxy)]-[2-Nal]-[a-MeLys]-[Lys(Ac)]-H-[bA]-NH2; Pen-Pen disulfide
B2: SEQ ID NO: 245 (peptide)
peptide: XNTXKXXXXKNL
modifications: Ac-[Pen]-NT-[W(7-Me)]-[Lys(Ac)]-[Pen]-Phe[4-(2-aminoethoxy)]-[2-Nal]-[a-MeLys]-[Lys(Ac)]-N-[(D)Leu]-NH2; Pen-Pen disulfide
B3: SEQ ID NO: 203 (peptide)
peptide: RXQTXQCXXXENX
modifications: Ac-[(D)Arg]-Abu-Q-T-[W(7-Me)]-Q-C-Phe[4-(2-aminoethoxy)]-[2-Nal]-[THP]-E-N-[bA]-NH2; Abu-Cys thioether
B4: SEQ ID NO: 258 (peptide)
peptide: XNTXKXXXXKNF
modifications: Ac-[Pen]-NT-[W(7-Me)]-[Lys(Ac)]-[Pen]-Phe[4-(2-aminoethoxy)]-[2-Nal]-[a-MeLys]-[Lys(Ac)]-N-[(D)Phe]-NH2; Pen-Pen disulfide
B5: SEQ ID NO: 236 (peptide)
peptide: XNTXQXXXXXNX
modifications: Ac-[Pen]-NT-[W(7-Me)]-Q-[Pen]-Phe[4-(2-aminoethoxy)]-[2-Nal]-[a-MeLys]-[Aib]-N-[bA]-NH2; Pen-Pen disulfide
B6: SEQ ID NO: 238 (peptide)
peptide: Ac-[Pen][Cit]T[Trp(7-Me)]Q[Pen][AEF][2Nal][αMeK]K(Ac)N[βAla]-NH2
modifications: disulfide 1-6
SMILES: CC(=O)NCCCC[C@H](NC(=O)[C@](C)(CCCCN)NC(=O)[C@H](Cc1ccc2ccccc2c1)NC(=O)[C@H](Cc1ccc(OCCN)cc1)NC(=O)[C@H]1NC(=O)[C@H](CCC(N)=O)NC(=O)[C@H](Cc2c[nH]c3c(C)cccc23)NC(=O)[C@H]([C@@H](C)O)NC(=O)[C@H](CCCNC(N)=O)NC(=O)[C@@H](NC(C)=O)C(C)(C)SSC1(C)C)C(=O)N[C@@H](CC(N)=O)C(=O)NCCC(N)=O
B7: SEQ ID NO: 207 (peptide)
peptide: XNTXQXXXXKAX
modifications: Ac-[Pen]-NT-[W(7-Me)]-Q-[Pen]-Phe[4-(2-aminoethoxy)]-[2-Nal]-[a-MeLeu]-[Lys(Ac)]-A-[bA]-NH2; Pen-Pen disulfide
B8: SEQ ID NO: 273 (peptide)
peptide: XNTXKXXXXEXX
modifications: Ac-[Pen]-N-T-[W(7-Me)]-[Lys(Ac)]-[Pen]-Phe[4-(2-aminoethoxy)]-[2-Nal]-[a-MeLys]-E-[bA]-[bA]-NH2; Pen-Pen disulfide
B9: SEQ ID NO: 242 (peptide)
peptide: XNTXKXXXXKNX
modifications: Ac-[Pen]-NT-[W(7-Me)]-[Lys(Ac)]-[Pen]-Phe[4-(2-aminoethoxy)]-[2-Nal]-[a-MeLys]-[Lys(Ac)]-N-[bA]-NH2; Pen-Pen disulfide
B10: SEQ ID NO: 214 (peptide)
peptide: XNTXQXXXXKHX
modifications: Ac-[Pen]-NT-[W(7-Me)]-Q-[Pen]-Phe[4-(2-aminoethoxy)]-[2-Nal]-[a-MeLeu]-[Lys(Ac)]-H-[bA]-NH2; Pen-Pen disulfide
B11: SEQ ID NO: 202 (peptide)
peptide: XNTXQXXXXKNX
modifications: Ac-[Pen]-NT-[W(7-Me)]-Q-[Pen]-Phe[4-(2-aminoethoxy)]-[2-Nal]-[a-MeLys]-[Lys(Ac)]-N-[bA]-NH2; Pen-Pen disulfide
B12: SEQ ID NO: 252 (peptide)
peptide: XNTXKXXXXKNK
modifications: Ac-[Pen]-NT-[W(7-Me)]-[Lys(Ac)]-[Pen]-Phe[4-(2-aminoethoxy)]-[2-Nal]-[a-MeLys]-[Lys(Ac)]-N-[(D)Lys]-NH2; Pen-Pen disulfide
B13: SEQ ID NO: 211 (peptide)
peptide: XNTXQXXXXKPX
modifications: Ac-[Pen]-NT-[W(7-Me)]-Q-[Pen]-Phe[4-(2-aminoethoxy)]-[2-Nal]-[a-MeLeu]-[Lys(Ac)]-P-[bA]-NH2; Pen-Pen disulfide
B14: SEQ ID NO: 224 (peptide)
peptide: XNTXQXXXXKXX
modifications: Ac-[Pen]-NT-[W(7-Me)]-Q-[Pen]-Phe[4-(2-aminoethoxy)]-[2-Nal]-[a-MeLeu]-[Lys(Ac)]-[Sarc]-[bA]-NH2; Pen-Pen disulfide
B15: SEQ ID NO: 347 (peptide)
peptide: Ac-[Pen]NT[Trp(7-Me)][Cit][Pen][AEF][2Nal][αMeK]K(Ac)N[Aib][dY]-NH2
modifications: disulfide 1-6
SMILES: CC(=O)NCCCC[C@H](NC(=O)[C@](C)(CCCCN)NC(=O)[C@H](Cc1ccc2ccccc2c1)NC(=O)[C@H](Cc1ccc(OCCN)cc1)NC(=O)[C@H]1NC(=O)[C@H](CCCNC(N)=O)NC(=O)[C@H](Cc2c[nH]c3c(C)cccc23)NC(=O)[C@H]([C@@H](C)O)NC(=O)[C@H](CC(N)=O)NC(=O)[C@@H](NC(C)=O)C(C)(C)SSC1(C)C)C(=O)N[C@@H](CC(N)=O)C(=O)NC(C)(C)C(=O)N[C@H](Cc1ccc(O)cc1)C(N)=O
B16: SEQ ID NO: 220 (peptide)
peptide: XNTXQXXXXGPX
modifications: Ac-[Pen]-NT-[W(7-Me)]-Q-[Pen]-Phe[4-(2-aminoethoxy)]-[2-Nal]-[a-MeLeu]-G-[(D)Pro]-[bA]-NH2; Pen-Pen disulfide

Numbered stars: 1 amine (or outer) side, 2 acyl side, 3 side chain; on linkers, the order of the positions; unused ones are H or OH. Bridge positions count the residues as written; N and C are the ends. Square brackets hold non-standard residues; d marks the D form. Trp(7-nPr) = CCCc1cccc2c(C[C@H](N[*:1])C(=O)[*:2])c[nH]c12; Trp(7-Me) = Cc1cccc2c(C[C@H](N)C(=O)O)c[nH]c12; 2Nal = N[C@@H](Cc1ccc2ccccc2c1)C(=O)O; AEF = NCCOc1ccc(C[C@H](N)C(=O)O)cc1; Cit = NC(=O)NCCC[C@H](N)C(=O)O; Pen = CC(C)(S)[C@H](N)C(=O)O; αMeK = C[C@](N)(CCCCN)C(=O)O; Aib = CC(C)(N)C(=O)O; βAla = NCCC(=O)O

The first assay deals with T1, IL-23R. Kind of assay: cell-based or functional assay.
For B1, the “NK Cell Assay (nM) IC50” value was < 10 nM. Same read-out and setting: then B2, with < 10 nM; and B3, with < 10 nM; and B4, with < 10 nM. As for B5, the “NK Cell Assay (nM) IC50” value is < 10 nM. Consider B6, for which the “NK Cell Assay (nM) IC50” value was < 10 nM. On to B7, for which the “NK Cell Assay (nM) IC50” value was < 10 nM.

As for B8, the “NK Cell Assay (nM) IC50” value is < 10 nM. Still for that read-out and setting: as for B9, the figure is < 10 nM.

Ac-[Pen]NT[Trp(7-nPr)]K(Ac)[Pen][AEF][2Nal][αMeK]K(Ac)N[dL]-NH2 (disulfide 1-6 (inferred)) [SEQ ID NO: 285]: the “NK Cell Assay (nM) IC50” value was < 10 nM. On the same count and under the same terms, as for B10, the figure is < 10 nM; as for Ac-[Pen]NT[Trp(7-Me)][Cit][Pen][AEF][2Nal][αMeK]K(Ac)N[dY]-NH2 (disulfide 1-6 (inferred)) [SEQ ID NO: 259], < 10 nM.

On to B11, for which the “NK Cell Assay (nM) IC50” value is < 10 nM.

For the molecule B12, the “NK Cell Assay (nM) IC50” value is < 10 nM.

For another assay, the target named is T1, IL-23R. In words: cell-based or functional assay. This is another data set of the same source.
B13: the “pStat3 HTRF (nM) IC50” value was > 100 nM. Consider B2, for which the “pStat3 HTRF (nM) IC50” value was < 1 nM. The same measure, in the same setting: as for B14, the figure is > 100 nM. Same read-out and setting: then B4, with < 1 nM; and B9, with < 1 nM; and Ac-[Pen]NT[Trp(7-nPr)]K(Ac)[Pen][AEF][2Nal][αMeK]K(Ac)N[dL]-NH2 (disulfide 1-6 (inferred)) [SEQ ID NO: 285], with < 1 nM. On the same count and under the same terms, then Ac-[Pen]NT[Trp(7-Me)][Cit][Pen][AEF][2Nal][αMeK]K(Ac)N[dY]-NH2 (disulfide 1-6 (inferred)) [SEQ ID NO: 259], with < 1 nM. Take B15: the “pStat3 HTRF (nM) IC50” value was < 1 nM. Still for that read-out and setting: as for B12, the figure is < 1 nM; as for B16, > 100 nM.
